Measured values from patent US20110262430A1 (published 2011).
Changes are numbered by the printed parent chain. Names may count otherwise.

B1: IGF1R-F (anti-IGF-1R H0L0 IgG1, wild type constant region, FUT8 deleted CHO DG44) (antibody)
heavy: not shown
light: DIVMTQSPLSLPVTPGEPASISCRSSQSIVQSNGDTYLEWYLQKPGQSPQLLIYRVSNRFSGVPDRFSGSGSGTDFTLKISRVEAEDVGVYYCFQGSHVPYTFGQGTKLEIKRTVAAPSVFIFPPSDEQLKSGTASVVCLLNNFYPREAKVQWKVDNALQSGNSQESVTEQDSKDSTYSLSSTLTLSKADYEKHKVYACEVTHQGLSSPVTKSFNRGEC
modifications: N-glycan fucose negative (all oligosaccharide species obtained from the sample are fucose negative)
notes: Same chains as IGF1R-E; differs by the host cell line; Campath leader left out
B2: IGF1R-H (anti-IGF-1R H0L0 IgG1 with S239D/I332E, FUT8 deleted CHO DG44) (antibody)
heavy: not shown
light: B1 light
modifications: N-glycan from FUT8 deleted CHO DG44 host (glycoengineered)
notes: Same chains as IGF1R-G; differs by the host cell line; Campath leader left out
B3: IGF1R-G (anti-IGF-1R H0L0 IgG1 with S239D/I332E, CHO-E1a) (antibody)
heavy: not shown
light: B1 light
notes: Campath leader left out
B4: CD20-B (anti-CD20 IgG1, wild type constant region, FUT8 deleted CHO DG44) (antibody)
heavy: not shown
light: QIVLSQSPAILSASPGEKVTMTCRASSSVSYIHWFQQKPGSSPKPWIYATSNLASGVPVRFSGSGSGTSYSLTISRVEAEDAATYYCQQWTSNPPTFGGGTKLEIKRTVAAPSVFIFPPSDEQLKSGTASVVCLLNNFYPREAKVQWKVDNALQSGNSQESVTEQDSKDSTYSLSSTLTLSKADYEKHKVYACEVTHQGLSSPVTKSFNRGEC
modifications: The Fc N-glycan is expected to lack fucose (host: FUT8 deleted CHO DG44). The letters cannot carry this.
B5: CD20-A (anti-CD20 IgG1, wild type constant region, CHO-E1a) (antibody)
heavy: not shown
light: B4 light
B6: 6E11 murine monoclonal antibody (antibody, V domains shown)
VH: EVQLQQSGPELVKPGASVRISCKASGYAFTDYYMNWVKQSHGKSLEWVANINPNNGGTNYNQKFKDKATLTVDKSSNTAYMELRSLTSEDTAVYYCARWILYYGRSKWYFDVWGTGTTVTVSS
VL: DVLMTQTPLSLPVSLGDHASISCRSSQSIVQSNGDTYLEWYLQKPGQSPKLLIYRISNRFSGVPDRFSGSGSGTDFTLKISRVEAEDLGVYYCFQGSHVPYTFGGGTKLEIKR
notes: Murine hybridoma antibody; Constant regions are murine IgG1/K or IgG2b/K; also called 6E11 parental; 6E11 mouse parental antibody
B7: 5G4 murine monoclonal antibody (antibody, V domains shown)
VH: EVQLQQSGPELVKPGASVKISCKASGYAFTDYYMNWVKQTHGRSLEWMANINPNTGGTNYNQKFRGKATLTVDKSSTTAYMELRSLTSEDSAVYYCARWILYYGSSRWYFDVWGTGTTVTVSS
VL: B6 VL with H18Q, S28T, Q31H, D35N, R55K, I56V, V90I
notes: Murine hybridoma antibody; murine constant regions not specified
B8: 15D9 murine monoclonal antibody (antibody, V domains shown)
VH: B7 VH with T40S, R43K, R65T, A97T, R107K
VL: B6 VL with H18Q, S28T, Q31H, D35N, I56V, N58Y, V83L, V90I
notes: as for B7
B9: H0L0 humanised antibody (wild type human IgG1) (antibody)
heavy: not shown
light: B1 light
B10: H0L0 IgG1m(AA) (antibody)
heavy: not shown
light: B1 light
B11: H1L0 humanised antibody (wild type human IgG1) (antibody)
heavy: not shown
light: B1 light
B12: H1L0 IgG1m(AA) (antibody)
heavy: not shown
light: B1 light
notes: also called H10L0 IgG1m(AA) (as misprinted in several captions)

The binders below were run against T1, His-tagged FcγRIIIa (F variant) extracellular domain (Heterogeneously glycosylated.) (assay: Biacore T100, His-tagged FcγRIIIa captured on anti-polyhistidine antibody, antibody injected 2-512 nM, 25°C, 1:1 model).
T1 construct: also called FcγRIIIa (Phe); FcγRIIIa (Phe variant)
T1 sequence (chain, as listed by the source mutant limits assumed): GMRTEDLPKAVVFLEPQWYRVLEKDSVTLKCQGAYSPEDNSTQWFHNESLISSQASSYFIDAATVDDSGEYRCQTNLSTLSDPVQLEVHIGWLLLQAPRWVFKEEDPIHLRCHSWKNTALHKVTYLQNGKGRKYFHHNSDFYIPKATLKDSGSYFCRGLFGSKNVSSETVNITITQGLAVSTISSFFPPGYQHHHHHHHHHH
Protocol: (§1) Qiagen anti-polyhistidine antibody (Cat No. 34670) was immobilised on CM5 biosensor chip using standard NHS/EDC activation, the antibody was diluted to 50 ug/ml in acetate pH4.0 buffer and passed over the activated surface for 20 minutes at 5 ul/minute, the surface was then blocked with ethanolamine. Prior to use the chip was conditioned by performing several regeneration steps using 100 mM phosphoric acid.
(§2) For analysis of the interaction of the FcγRIIIa with various antibody constructs, the poly-histidine tagged receptors were captured to around 20 RU's. […] Regeneration was carried out using 100 mM phosphoric acid following each antibody/buffer injection. The run was carried out using HBS-EP buffer and carried out at 25° C. on a T100 Biacore machine. The data was analysed using the analysis software inherent to the machine using the 1:1 and Bivalent models.

Kd [nM]	Binder
59.6	B1
1.11	B2
14.9	B3
20.7	B4

Each binder was assayed against T2, His-tagged FcγRIIIa (V variant) extracellular domain (Heterogeneously glycosylated.) in the same assay as above.
T2 construct: also called FcγRIIIa (Val); FcγRIIIa (Val variant)
T2 sequence (chain, as listed by the source mutant limits assumed): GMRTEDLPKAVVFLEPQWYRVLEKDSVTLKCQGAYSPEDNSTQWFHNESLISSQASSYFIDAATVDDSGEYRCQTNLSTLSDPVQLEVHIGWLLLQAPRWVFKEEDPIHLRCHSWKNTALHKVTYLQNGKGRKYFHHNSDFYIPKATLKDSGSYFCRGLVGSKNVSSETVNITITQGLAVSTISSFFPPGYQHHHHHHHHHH
Protocol: as §1, §2

Kd [nM]	Binder
12.1	B1
0.832	B2
7.27	B3
5.9	B4
39.5	B5

The binders below were run against T1, His-tagged FcγRIIIa (F variant) … (assay: Biacore T100, His-tagged FcγRIIIa captured on anti-polyhistidine antibody, antibody injected 2-512 nM, 25°C, Bivalent model).
Protocol: as §1, §2

Kd [nM]	Binder
131	B1
51.7	B2
88.9	B3
75.6	B4
78.2	B5

What follows are binders tested against T2, His-tagged FcγRIIIa (V variant) … in the same assay as above.
Protocol: as §1, §2

Kd [nM]	Binder
146	B1
2.7	B2
68.8	B3
74.1	B4
274	B5

Each binder was assayed against T3, Cynomolgus macaque monkey IGF-1R-Fc fusion protein (cynomolgus macaque monkey (Macaca …)) (assay: binding ELISA: plate coated with recombinant cynomolgus macaque IGF-1R-Fc, antibody titrated, anti-mouse Ig-HRP detection, OD 450nm).
T3 construct: The entry begins with the native signal peptide; also called recombinant Cynomolgus macaque IGF-1R; recombinant cynomolgus macaque IGF-1R
T3 sequence (chain, as listed by the source limits assumed): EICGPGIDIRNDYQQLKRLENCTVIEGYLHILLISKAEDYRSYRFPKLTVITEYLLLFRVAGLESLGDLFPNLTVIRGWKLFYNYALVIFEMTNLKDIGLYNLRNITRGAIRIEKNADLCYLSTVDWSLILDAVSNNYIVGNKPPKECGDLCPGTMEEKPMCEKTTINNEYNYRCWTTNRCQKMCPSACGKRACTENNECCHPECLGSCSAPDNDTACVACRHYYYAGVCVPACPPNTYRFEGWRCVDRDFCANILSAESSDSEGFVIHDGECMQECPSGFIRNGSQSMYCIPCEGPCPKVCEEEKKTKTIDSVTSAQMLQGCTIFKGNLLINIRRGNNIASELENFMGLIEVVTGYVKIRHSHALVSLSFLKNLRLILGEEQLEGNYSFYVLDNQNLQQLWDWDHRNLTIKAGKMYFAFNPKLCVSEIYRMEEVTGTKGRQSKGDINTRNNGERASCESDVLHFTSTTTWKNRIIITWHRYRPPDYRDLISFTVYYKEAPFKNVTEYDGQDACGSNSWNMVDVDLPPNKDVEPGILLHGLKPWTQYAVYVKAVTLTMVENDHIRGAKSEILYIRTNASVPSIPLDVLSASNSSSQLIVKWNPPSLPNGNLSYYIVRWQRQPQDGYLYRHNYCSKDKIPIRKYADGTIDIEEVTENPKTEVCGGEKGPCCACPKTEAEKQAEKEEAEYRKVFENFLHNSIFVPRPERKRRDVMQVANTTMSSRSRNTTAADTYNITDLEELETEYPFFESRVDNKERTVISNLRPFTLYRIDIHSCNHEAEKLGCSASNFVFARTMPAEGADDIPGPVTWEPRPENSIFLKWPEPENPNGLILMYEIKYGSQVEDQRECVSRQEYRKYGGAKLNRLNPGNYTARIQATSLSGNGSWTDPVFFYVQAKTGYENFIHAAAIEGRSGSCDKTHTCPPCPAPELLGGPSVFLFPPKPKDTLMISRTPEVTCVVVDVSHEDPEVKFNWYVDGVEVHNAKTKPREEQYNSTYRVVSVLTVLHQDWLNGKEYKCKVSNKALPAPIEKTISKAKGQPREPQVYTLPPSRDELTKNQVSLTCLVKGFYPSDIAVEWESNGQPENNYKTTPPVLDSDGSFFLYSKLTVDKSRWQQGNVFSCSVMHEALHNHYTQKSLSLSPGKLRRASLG
Protocol: (§3) 96 well ELISA plates were coated overnight with recombinant Cynomolgus macaque IGF-1R (see Example 4) at 1-2 μg/ml and blocked with 4% BSA/PBS. Purified anti-hIGF-1R antibodies were added and incubated for 1 hour at room temperature. The plates were washed in TBST and HRP conjugated anti mouse Ig (DAKO #P0260) was added to each well at 0.6-1.0 μg/ml. Plates were incubated for 1 hour at room temperature, washed with TBST and developed with OPD substrate (Sigma P9187) or TMB substrate (Sigma T8665). […] For antibodies containing a human IgG1/Cκ constant region, the HRP conjugated anti mouse Ig detection antibody was substituted with a goat anti-human Kappa Light Chains peroxidase conjugate (Sigma, A7164)

EC50 (read off the curve) [µg/mL]	binding result	Binder
~0.04	–	B6
~0.1	–	B7
–	binds	B8

What follows are binders tested against T3, Cynomolgus macaque monkey IGF-1R-Fc … (assay: binding ELISA: plate coated with recombinant cynomolgus macaque IGF-1R-Fc, antibody titrated, anti-human kappa light chain-HRP detection, OD 490nm).
Protocol: as §3

binding result	Binder
binds	B9
binds	B10
binds	B11
binds	B12
